assay: soluble on expression in E. coli; label from the status in PepcDB or PDB records

Row | Sequence | soluble on expression in E. coli
1 | MGSDKIHHHHHHMTKREGGIKMAEKRRKRVVILGAAGRDFHNFNVFFRNNPEYEVVAFTATQIPDIEGRIYPPELAGELYPNGIPILPEDDLEKIIKEKDVDIVVFAYSDVSHEHVMHLASRAHSAGADFWLLGPKSTMIESKKPVVAVTAVRTGCGKSQTSRKVAQLLQEMGYKVAVIRHPMPYGDLRKQIVQRFASFEDLDRYECTIEEREEYEPYIERGMVVYAGVDYEKILREAEKEADIILWDGGNNDFPFYKPDLWIVVTDPHRPGHELTHHPGETNFRSADVIIINKIDTAYPENVQKIRENIEKVNPNAIVIEAASPIFVDKPELIKGKRVLVIEDGPTLTHGGMSYGAGYIAAKKFGAKEIVDPRPYAVGSIIETYKKYPHLSNILPAMGYGKKQIKELEETINRADADVVIMGTPVDLRRFMNLNKPAVRVKYELEEIGQPKLKDILEEWVKKCEKLKK | not soluble
2 | MGHHHHHHSHMKESAHLAISWLRSNAKKYQLTNAFGSFDLLDNTDIHLHFPAGAVTKDGPSAGVTIVTCLASLFSGRLVRSDVAMTGEITLRGLVLPVGGIKDKVLAAHRAGLKQVIIPRRNEKDLEGIPGNVRQDLSFVTASCLDEVLNAAFDGGFTVKTRPGLLNSKL | not soluble
3 | MWITTTPWSKHSPNWVLADNGEKLIVPEIILGDAQGPTRNEWYIGLSSVLGFSFWSPDYDGVGTWLDAATQLNEQGGGDVITYSSGAHIVRTLLLAASQSNVHSTFTSKALGNDQTSSMTSSTTAVTVAKSGDGQQQTGEQKEEDWKDISKADLFKDDPYVLKNFGDSTTQAKMQSGGSTNSNGNGSQASLAFTKKALSLLKFLVDNKILKKDKVKEAIMNPDQYLSKRSKLDSNNQKPTKDDFIGSEFKDLYENAAKLNRFNSIWAEKDTDNAKFLITVVDSYFPVLPVPAAGLNETSPTLLKPWFQFRSAPSGNGTIRDYGFIPENK | soluble
4 | MGSDKIHHHHHHMENLKTYFYTEDGVVKAVDGVSFEVREGETLGIVGESGSGKSVTSLSIMRLLDQNGKIVDGKIIFKGRNLLELSENEMRKIRGKEIAMIFQEPMVALNPVFTIGDQIMEAIILHQNVSEKEARKMAIDLLRKVGIPEPEKRVDEYPHQLSGGMRQRAMIAMALSCRPSLLIADEPTTALDVTIQAQILELMKELQKEYGMAIILITHDMGVVAEMSDKVAVMYAGKVVEYGDVKTIFTEPKHPYTYALLESIPRIDVEQERLKSIPGNVPDPLNFPPGCKFHPRCEFFEKGKCDVEEPELEDLDGNHKVRCFFWQKLDEMRHAKSEV | not soluble
5 | MDTLAFINRALVEEGYSLKDIKLVLITDFEPSSVEAIRRLLAVNQGVSFIGRKYVKEVLEKFGLRNVRFRAVEEIPSLEFKLPESGTVKVLPFRNSPQEASAGYLLEEERILFSGKFLGSFGEKGDTIQIFHRVFFPCRNILDYNVGLLESIGEEFEVFPFYGEKQKLSAKTLKEYFNYTVKGSVLEREVILGLVNGVLLNLSDEERENLLSSIGYLAEVDDKVIVDFYTEPNLFYEEFVNTLPDAVKSKEEFYRIVEKLLEHNFYVPLRAV | not soluble
6 | KKYVVFDMDGTLTTTDFEDVKQYAGEFFNSNYVAKMYPDVDNVVKYYASKGYGILYLTARPYWLSEESQTWLWKNGFPMGLLHTYTGGDVLLGEEAESFKAGYLNQLKSQGIEFDYGFGNEKTDVEAYSNIGIAKSNIFTIGKNRGIDGSVSIVSYTDYLKQLSGN | not soluble
7 | MPVFSINVNVKVPAEKQNEILKELSTVLGKLLNKPEQYMCIHFHEDQGILYAGTTEPAGFAVLKSIGGVGSAKQNNAISAVVFPIIEKHLGIPGNRLYIEFVNLGAADIAYNGQTFA | not soluble
8 | MHHHHHHSSGVDLGTENLYFQSMASESETLNPSARIMTFYPTMEEFRNFSRYIAYIESQGAHRAGLAKVVPPKEWKPRASYDDIDDLVIPAPIQQLVTGQSGLFTQYNIQKKAMTVREFRKIANSDKYCTPRYSEFEELERKYWKNLTFNPPIYGADVNGTLYEKHVDEWNIGRLRTILDLVEKESGITIEGVNTPYLYFGMWKTSFAWHTEDMDLYSINYLHFGEPKSWYSVPPEHGKRLERLAKGFFPGSAQSCEAFLRHKMTLISPLMLKKYGIPFDKVTQEAGEFMITFPYGYHAGFNHGFNCAESTNFATRRWIEYGKQAVLCSCRKDMVKISMDVFVRKFQPERYKLWKAGKDNTVIDHTLPTPEAAEFLKESEL | soluble
9 | DHDFKYEVSANLSTVRNRVTSLGFGTDSYISGAYITNVGEEIGKFYGWVYDGIARTQADLDNHATQEGAQIGDCLYKDVSGPDGKPDGKVDANDQVVLGSGMPKINFGLNARFEYKRFDLSIATFGALNYHVSDDIHNSLNSCYGWGNKDVAMLDANRFSEDGSTYLSSVPRTYVTNSASLAWNDLFSDRKIQNAAYWKIANIELGYNFPNEWFGKYVSDVRFYVSAQNLHTFTGYKGYNVDYAGGTFTPGYNFCSYPTARTFMCGVHFTF | not soluble
10 | GSHMAEPQRHKILCVCCKCDGRIELTVESSAEDLRTLQQLFLSTLSFVCPWCATNQ | soluble
11 | VNIKTNPFKAVSFVESAIKKALDNAGYLIAEIKYDGVRGNICVDNTANSYWLSRVSKTIPALEHLNGFDVRWKRLLNDDRCFYKDGFMLDGELMVKGVDFNTGSGLLRTKWTDTKNQEFHEELFVEPIRKKDKVPFKLHTGHLHIKLYAILPLHIVESGEDCDVMTLLMQEHVKNMLPLLQEYFPEIEWQAAESYEVYDMVELQQLYEQKRAEGHEGLIVKDPMCIYKRGKKSGWWKMKPENEADGIIQGLVWGTKGLANEGKVIGFEVLLESGRLVNATNISRALMDEFTETVKEATLSQWGFFSPYGIGDNDACTINPYDGWACQISYMEETPDGSLRHPSFVMFR | soluble
12 | MSLRNDAYSTLRVSSEHGVARIILDNPPVNVIGATMMRELRTVLTTLADDSSVRVIVFSSADPEFFLAHVDMRIGEKMDALQELAASAPADVNVFQAVGELIRHQPQVTIVKLAGKARGGGAEFVAAADMAFAAAETAGLGQIEALMGIIPGGGGTQYLRGRVGRNRALEVVLTADLFDAETAASYGWINRALPADELDEYVDRVARNIAALPDGVIEAAKRSLPADDLKEGLLGENDAWAATFSLPAAQQLISGGLKDGAQTPAGERDLEGLMRSVAREGHHHHHH | soluble
13 | MNELQAYHLSRNQFCPNLFFLAMNNVAQTDTPQQYDLRILRALRRITRSIALHSRQLAAVSHITAPQLMCLRAVIAGGPMTATAISREIHVSPSTVVGILDRLEDKGLIRRERGREDRRIVFVTATEGGRTLAAEAPSPLQKHLADGLNALPELEQATITLALERIVALMEQEGHAVEAAGEGSPPILEMPTGGAPPESGLVV | not soluble
14 | FLYSNTSYRTLYLAAILYKAKADIRIVHDHLNHTSLADLKFKKYVYNHFKTQGQVIYFICTKKIQKRLRMTADQCARVNLLSNIAD | soluble
15 | MSLSSLDAVLSQDLIVADGPAVEVGDSLEVAYTGWLFQNHVLGQVFDSTANKDKLLRLKLGSGKVIKGWEDGMLGMKKGGKRLLIVPPACAVGSEGVIGWTQATDSILVFEVEVRRVKFAREGHHHHHH | not soluble
16 | KSIYIQSPYFIPDQAFLDSIKIAALGGVDVNIMIPNKPDHPFVFWATLKNAASLLDAGVKVFHYDNGFLHSKTLVIDDEIASVGTANMDHRSFTLNFEVNAFIYDQQIAKKLKQAFIDDLAVSSELTKARYAKR | not soluble
17 | MGSDKIHHHHHHMSTIQIKQLNFAYDGQAPLFTNTTLDLDTNWHLGLVGRNGRGKTTLLRILQQALPYSGTVTVPLQLQYFPQTLDETQLTLTAAQAITDVAQWQLERELNLLHADPNILWRPFVDLSGGEQTKVRLALLFIQDNGVALIDEPTNHLDLRSRRQVAAYLQQKPGFIVVSHDRDFLDSITDHTLAIQRQQITLYQGNFSTFMTEKERQDQTELAKNGQLKTEITRLKRTTHDKKVWAENKEKSIYGNPHIKDSGHNAGRGFISARAARTMKKSKNLEHRMTKEIDEKESLLKNLEKVDPLTMLPVSTHHHQLVVAEKVQVGFDQPLFQPISFTLTRGDRIAIVGDNGSGKSTLIRALLKQFTGMQSGHLTLAPVSLSLVRQQYTDNRGTLVDFAKQHQLSRETLLNNLRKLGMPRADFNTSIEHLSMGQQKKVELARSLATPGALYVWDEPLNYLDTYNQDQLVAAIKHYQPTMLFVEHDEHFIEQVATKIIRLQP | not soluble
18 | MTMRFSVLASGSTGNAFYIETDRQRLLVDAGLSGKQLEELFAEIGRHPKQLDALLVTHEHSDHIKGLGVLARKYRLPVYANEKTWRAMEQAVGDIPPEQKFVFPLGAVRTFGDVDVESFGVSHDAAEPMFYVFHYEGKKLALLTDTGYVSERIKKTIENADVFVFESNHDVGMLRMGRYPWSVKRRILSDVGHISNEEAGLALADVIGDRTKQIYLAHLSQDNNMKELARMTVTQVLEQKGLAVGARFRLYDTDPRRATALAYV | not soluble
19 | METFGVFHKEDDEQMDLPPGFRFHPTDEELITHYLHKKVLDLGFSAKAIGEVDLNKAEPWELPYKAKIGEKEWYFFCVRDRKYPTGLRTNRATQAGYWKATGKDKEIFRGKSLVGMKKTLVFYRGRAPKGQKTNWVMHEYRLDGKLSAHNLPKTAKNEWVICRVFHKTAGGKKIPISTLIRIGSYGTGSSLPPLTDSSPYNDKTKTEPVYVPCFSNQAETRGTILNCFSNPSLSSIQPDFLQMIPLYQPQSLNISESSNPVLTQEQSVLQAMMENNRRQNFKTLSISQETGVSNTDNSSVFEFGRKRFDHQEVPSPSSGPVDLEPFWNY | soluble
20 | SNAMLRYGDTEICIDPSESVLHLLGKKYTMLIISVLGNGSTRQNFNDIRSSIPGISSTILSRRIKDLIDSGLVERRSGQITTYALTEKGMNVRNSLMPLLQYISVLDRNGD | soluble
21 | SPTVEELYRNYGILADATEQVGQHKDAYQVILDGVKGGTKEKRLAAQFIPKFFKHFPELADSAINAQLDLCEDEDVSIRRQAIKELPQFATGENLPRVADILTQLLQTDDSAEFNLVNNALLSIFKMDAKGTLGGLFSQILQGEDIVRERAIKFLSTKLKTLPDEVLTKEVEELILTESKKVLEDVTGEEFVLFMKILSGLKSLQTVSGRQQLVELVAEQADLEQTFNPSDPDCVDRLLQCTRQAVPLFSKNVHSTRFVTYFCEQVLPNLGTLTTPVEGLDIQLEVLKLLAEMSSFCGDMEKLETNLRKLFDKLLEYMPLPPEEAENGENAGNEEPKLQFSYVECLLYSFHQLGRKLPDFLTAKLNAEKLKDFKIRLQYFARGLQVYIRQLRLALQGKTGEALKTEENKIKVVALKITNNINVLIKDLFHIPPSYKSTVTLSWKPVQKVEIGQKRASEDTTSGSPPKKSSAGPKRDARQIYNPPSGKYSSNLGNFNYERSLQGK | soluble
22 | MGSDKIHHHHHHMIVVLKPGSTEEDIRKVVKLAESYNLKCHISKGQERTVIGIIGDDRYVVADKFESLDCVESVVRVLKPYKLVSREFHPEDTVIDLGDVKIGNGYFTIIAGPCSVEGREMLMETAHFLSELGVKVLRGGAYKPRTSPYSFQGLGEKGLEYLREAADKYGMYVVTEALGEDDLPKVAEYADIIQIGARNAQNFRLLSKAGSYNKPVLLKRGFMNTIEEFLLSAEYIANSGNTKIILCERGIRTFEKATRNTLDISAVPIIRKESHLPILVDPSHSGGRRDLVIPLSRAAIAVGAHGIIVEVHPEPEKALSDGKQSLDFELFKELVQEMKKLADALGVKVN | soluble
